Legend:
[1] = target: temperature sensitive p53 (val135) mutant expressed in p53A cells (UniProt P02340); test: cell-based or functional assay
[2] = system: p53A cells; test: Apoptotic morphology of transfected cells by indirect immunofluorescence at the permissive temperature; assay type: cell-based, rat; settings: 24 μg plasmid DNA, permissive temperature (FIG. 9)
Procedure: Apoptotic morphology was assessed by scoring for cells that are positive by fluorescence microscopy and are rounded and non adherent.
In addition, we determined the percentage of cells with apoptotic morphology that were ectopically expressing wild-type p300 ectopically or the E1A-binding mutant of p300 following transient transfection with 24 μg of plasmid DNA. Apoptotic morphology was determined by counting cells that were rounded in shape and detaching from the dish. The percentage of cells with apoptotic morphology transiently expressing a control protein, a fragment of the lamin A protein (Rao et al. 1996), compared to p300 and mutant p300 transfected p53A cells at the permissive temperature was determined by indirect immunofluorescence.

[3] = system: mdm2 in p53A cells; test: Up-regulation of endogenous Mdm2 by indirect immunofluorescence; assay type: cell-based, rat; settings: indirect immunofluorescence (FIG. 7)
Procedure: Cells were fixed in cold methanol prior to incubation with primary antibodies. Subsequent to several washes in PBS, cells were incubated with rhodamine-conjugated goat anti-mouse antibody or fluorescein-conjugated goat anti-rabbit antibody. Cells were then washed, mounted and analyzed by fluorescence microscopy using a Nikon FXA epifluorescence microscope.
The indicated amount of plasmid DNA was transfected by electroporation. After transfection, cells were incubated at 37.5° C. for 24 hours to recover, and were then shifted to 32° C. for 24 hours before analysis for viability by trypan blue staining and apoptotic morphology. […]
We next attempted to rescue p53A cells from apoptosis at the permissive temperature by ectopically expressing p300. Vector alone, wild-type p300 and a functional but truncated form of p300 with a deletion of E1A binding domain (Arany et al. 1994), were transiently transfected in p53A cells. p53-dependent apoptosis was examined at the permissive temperature 48 hours post-transfection. p53A cells transiently expressed the exogenous wild-type p300 and the E1A binding mutant form of p300, neither of which were detected in mock transfected cells. The up-regulation of mdm2 in p300 transfected cells was not detected by Western blot analysis above endogenous levels (FIG. 6) because the transfection efficiency was low in transient assays. […]

[4] = system: GAL-4 luciferase reporter construct in HeLa cells; test: Transcriptional reporter assay (GAL-4 luciferase reporter); assay type: cell-based
Procedure: Transcriptional reporter assays were performed as described previously (Catron, et al., 1995). HeLa cells were plated onto 60 mm tissue culture dishes and grown to 50-75% confluency. The cells were then transfected with 2.5 μg of a GAL-4 luciferase reporter construct (kindly provided by Dr. C. Abate-Shen, Center for Advanced Biotechnology and Medicine, Piscataway, N.J.) along with 2.5 μg of both a pm1 vector (BtfS, BtfS-N552 or BtfS-C210) and a bcl-2 family gene (pCMV-E1B 19K, pcDNA3-Bcl-2, or pcDNA3-Flag-Bcl-xL). DNA concentrations were kept constant using appropriate empty vectors, either pm1 or pcDNA3. The cells were transfected using SuperFect (Qiagen, Valencia, Calif.) according to the manufacturer's specifications and harvested 24 hours post-transfection. Expression of mutant and wild-type BtfS proteins were verified by immunofluorescence using an antibody against the GAL-4 DNA-binding domain (Clontech, San Fransisco, Calif.). Luciferase activity was determined using the Luciferase Assay System (Promega Corp., Madison, Wis.) measured in a scintillation counter, and then normalized for protein concentrations measured by a Bradford assay. […]
To address these issues, BtfS was cloned into a mammalian expression vector (pm1) containing the GAL-4 DNA binding domain. Transcriptional activity was monitored using a reporter construct containing GAL-4 promoter sites. […]

mutant mdm2 with deletion of the N-terminal p53-binding domain (pCOC-ΔXM / pCMVβ-ΔXM) (from UniProt P23804 102-489)
percentage of apoptotic cells (morphology, indirect immunofluorescence) among p53A cells expressing the protein [1]: 30%

mutant p300: Functional but truncated p300 with deletion of the E1A binding domain (pCMVβp300Δ30)
percentage of expressing cells with apoptotic morphology [2]: 8% | transfected cells showing up-regulation of Mdm2 [3]: 90%

wild-type mdm2 (pCOC-X2 / pCMVβ-X2) (from UniProt P23804 1-489)
percentage of apoptotic cells (morphology, indirect immunofluorescence) among p53A cells expressing the protein [1]: 10%

wild-type p300: Transcriptional coactivator p300, HA-tagged, expressed from pCMVβp300
percentage of expressing cells with apoptotic morphology [2]: 4% | transfected cells showing up-regulation of Mdm2 [3]: 90%

B1: pm1-BtfS: BtfS fused to the GAL-4 DNA binding domain in mammalian expression vector pm1 (protein)
chain: MKLLSSIEQACDICRLKKLKCSKEKPKCAKCLKNNWECRYSPKTKRSPLTRAHLTEVESRLERLEQLFLLIFPREDLDMILKMDSLQDIKALLTGLFVQDNVNKDAVTDRLASVETDMPLTLRQHRISATSSSEESSNKGQRQLTVSMGRANSRSHSSRSKSRSQSSSRSRSRSHSRKKRYRSRSRTYSRSRSRDRMYSRDYRRDYRNNRGMRRPYGYRGRGRGYYQGGGGRYHRGGYRPVWNRRHSRSPRRGRSRSRSPKRRSVSSRSRSRSRRSYRSSRSPRSSSSRSSSPYSKSPVSKRRGSQEKQTKKAEGEPQEESPLKSKSQEEPKDTFEHDPSESIDEFNKSSATSGDIWPGLSAYDNSPRSPHSPSPIATPPSQSSSCSDAPMLSTVHSAKNTPSQHSHSIQHSPERSGSGSVGNGSSRYSPSQNSPIHHIPSRRSPAKTIAPQNAPRDESRGRSSFYPDGGDQETAKTGKFLKRFTDEESRVFLLDRGNTRDKEASKEKGSEKGRAEGEWEDQEALDYFSDKESGKQKFNDSEGDDTEETEDYRQFRKSVLADQGKSFATASHRNTEEEGLKYKSKVSLKGNRESDGFREEKNYKLKETGYVVERPSTTKDKHKEEDKNSERITVKKETQSPEQVKSEKLKDLFDYSPPLHKNLDAREKSTFREESPLRIKMIASDSHRPEVKLKMAPVPLDDSNRPASLTKDRLLASTLVHSVKKEQEFRSIFDHIKLPQASKSTSESFIQHIVSLVHHVKEQYFKSAAMTLNERFTSYQKATEEHSTRQKSPEIHRRIDISPSTLRKHTRLAGEERVFKEENQKGDKKLRCDSADLRHDIDRRRKERSKERGDSKGSRESSGSRKQEKTPKDYKEYKSYKDDSKHKREQDHSRSSSSSASPSSPSSREEKESKKEREEEFKTHHEMKEYSGFAGVSRPRGTFFRIRGRGRARGVFAGTNTGPNNSNTTFQKRPKEEEWDPEYTPKSKKYFLHDDRDDGVDYWAKRGRGRGTFQRGRGRFNFKKSGSSPKWTHDKYQGDGIVEDEEETMENNEEKKDRRKEEKE
decrease in transcription compared to empty pm1 vector control ([4]; 24 hours post-transfection (FIG. 27)): ~10 fold

B2: ΔC210: Deletion mutant of BtfS, amino acids 1-210, cloned into pm1 (protein, UniProt Q9NYF8 1-210, looked up, fragment)
chain: MGRSNSRSHSSRSKSRSQSSSRSRSRSHSRKKRYSSRSRSRTYSRSRSRDRMYSRDYRRDYRNNRGMRRPYGYRGRGRGYYQGGGGRYHRGGYRPVWNRRHSRSPRRGRSRSRSPKRRSVSSQRSRSRSRRSYRSSRSPRSSSSRSSSPYSKSPVSKRRGSQEKQTKKAEGEPQEESPLKSKSQEEPKDTFEHDPSESIDEFNKSSATSG
modifications: BtfS isoform
notes: Deletion mutant of BtfS, amino acids 1-210, cloned into pm1
ability to repress transcription (in words) ([4]; pm1 GAL-4 DNA-binding domain fusions (FIG. 27)): sufficient for repression and nearly as potent as full-length BtfS

Reference: patent US6890716B1, “Recombinant cell line and screening method for identifying agents which regulate apoptosis and tumor suppression” (Howard Hughes Medical Institute, priority 1998, dated 2005)
